± gives the uncertainty stated by the source.
Test: self-splicing fitness, log relative to wild type (ln ratio); higher = more splicing; Tetrahymena group I intron in knt gene, E. coli kanamycin selection, DiMSum; sequences stand for … in CUCUCU…GGAGGGAAAAGUUAUCAGGCAUGCACCUGGUAGCUAGUCUUUAAACCAAUAGAUUGCAUCGGUUUAAAAGGCAAGACCGUCAAAUUGCGGGAAAGGGGUCAACAGCCGUUCAGUACCAAGUCUCAGGGGAAACUUUGAGAUGGCCUUGCAAAGGGUAUGGUAAUAAGCUGACGGACAUGGUCCUAACCACGCAGCCAAGUCCUAAGUCAACAGAUCUUCUGUUGAUAUGGAUGCAGUUCACAGACUAAAUGUCGGUCGGGGAAGAUGUAUUCUUCUCAUAAGAUAUAGUCGGACCUCUCCUUAAUGGGAGCUAGCGGAUGAAGUGAUGCAACACUGGAGCCGCUGGGAACUAAUUUGUAUGCGAAAGUAUAUUGAUUAGUUUUGGAGUACUCGUGGUCG
Outline: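 Pooled colonies went to amplicon sequencing on an Illumina HiSeq 2500 after six replicate transformations. The plates were LB agar with 100 μg/mL carbenicillin, 50 μM IPTG and 0.2% rhamnose, with or without 25 μg/mL kanamycin, incubated overnight at 37°C or 30°C. The E. coli BL21(DE3) library had all eight P1ex-region intron nucleotides randomised, the intron placed in the knt kanamycin-resistance gene on pET-22b(+). DiMSum fitness is the error-weighted combination of replicate fold changes, kanamycin against none, normalised to wild type.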

| Sequence | self-splicing fitness (ln) (30 °C) | self-splicing fitness (ln) (37 °C) |
| --- | --- | --- |
| ACAUAGCAAUAUUACGUAAU | -2.87 ± 0.11 | -1.93 ± 0.14 |
| CCAAAGCAAUAUUACGACGU | -3.76 ± 0.22 | -2.8 ± 0.21 |
| GCUAAGCAAUAUUACGGCAU | -2.13 ± 0.1 | -0.863 ± 0.12 |
| AAUUAGCAAUAUUACGGGCG | -0.93 ± 0.12 | -1.36 ± 0.13 |
| UGAUAGCAAUAUUACGUAAC | -3.41 ± 0.17 | -2.76 ± 0.22 |
| GGGAAGCAAUAUUACGAUUC | -0.445 ± 0.14 | -0.851 ± 0.16 |
| GUUAAGCAAUAUUACGUAGC | -2.84 ± 0.19 | -1.86 ± 0.26 |
| AACGAGCAAUAUUACGAGAU | -4.25 ± 0.36 | -3.02 ± 0.3 |
| GAGCAGCAAUAUUACGCGGU | -3.17 ± 0.27 | -0.69 ± 0.22 |
| GGAAAGCAAUAUUACGUCAU | -2.34 ± 0.18 | -1.38 ± 0.18 |
| CAAUAGCAAUAUUACGUCGG | -0.177 ± 0.069 | 0.202 ± 0.083 |
| GCUGAGCAAUAUUACGGCGC | -0.35 ± 0.13 | -0.0749 ± 0.15 |
| CUAUAGCAAUAUUACGAUAU | -2.53 ± 0.21 | -2.45 ± 0.45 |
| UCGGAGCAAUAUUACGCUAG | -1.87 ± 0.21 | -2.38 ± 0.27 |
| CUUGAGCAAUAUUACGAUCA | – | -2.89 ± 0.48 |
| ACCGAGCAAUAUUACGUAAC | -4.02 ± 0.32 | -2.88 ± 0.35 |
| CCCCAGCAAUAUUACGUACU | -3.21 ± 0.22 | -2.67 ± 0.27 |
| GAUAAGCAAUAUUACGGGCG | -1.41 ± 0.11 | -0.837 ± 0.13 |
| AAGCAGCAAUAUUACGCUUC | -2.97 ± 0.18 | -2.81 ± 0.26 |
| AGAGAGCAAUAUUACGAUGU | -2.52 ± 0.41 | -2.69 ± 0.36 |
| GGUAAGCAAUAUUACGCGUC | -1.95 ± 0.2 | 0.649 ± 0.18 |
| CUUGAGCAAUAUUACGAGGU | -2.39 ± 0.19 | -2.42 ± 0.22 |
| CAAAAGCAAUAUUACGCGAA | -3.36 ± 0.23 | -1.3 ± 0.17 |
| CAAUAGCAAUAUUACGUUCG | -0.45 ± 0.057 | 0.556 ± 0.081 |

| Sequence | self-splicing fitness (ln) (30 °C) | self-splicing fitness (ln) (37 °C) |
| --- | --- | --- |
| GAGAAGCAAUAUUACGUCUA | -0.555 ± 0.076 | 0.35 ± 0.092 |
| UGGAAGCAAUAUUACGUUUU | -3.63 ± 0.33 | -2.43 ± 0.27 |
| GGCUAGCAAUAUUACGCGUC | -2.06 ± 0.24 | 0.0137 ± 0.14 |
| CUAUAGCAAUAUUACGCUGU | -3.72 ± 0.26 | -1.29 ± 0.22 |
| CACCAGCAAUAUUACGGCCA | -0.747 ± 0.067 | -1.22 ± 0.082 |
| CGUUAGCAAUAUUACGCGUA | – | -0.996 ± 0.25 |
| AUCGAGCAAUAUUACGGCGU | -0.0628 ± 0.11 | -0.183 ± 0.11 |
| CGGAAGCAAUAUUACGACAA | -2.42 ± 0.31 | -2.2 ± 0.33 |
| UCACAGCAAUAUUACGUGCC | -1.42 ± 0.11 | 0.00553 ± 0.12 |
| AUUGAGCAAUAUUACGCUAC | -3.69 ± 0.37 | – |
| GUGCAGCAAUAUUACGAUAC | -1.58 ± 0.2 | -0.0479 ± 0.17 |
| AGGGAGCAAUAUUACGUUAA | -3.09 ± 0.48 | -2.66 ± 0.41 |
| ACAUAGCAAUAUUACGGCCU | -0.828 ± 0.074 | 0.129 ± 0.1 |
| ACCGAGCAAUAUUACGUCUU | -2.91 ± 0.12 | -2.22 ± 0.13 |
| AUACAGCAAUAUUACGAGGU | -3.04 ± 0.11 | -1.84 ± 0.11 |
| UAUGAGCAAUAUUACGUGUG | -2.41 ± 0.097 | -1.1 ± 0.085 |
| AAACAGCAAUAUUACGCAGU | -3.42 ± 0.15 | -1.44 ± 0.12 |
| CGCCAGCAAUAUUACGCUUU | -2.9 ± 0.13 | -1.13 ± 0.12 |
| UAUUAGCAAUAUUACGAGUA | -0.732 ± 0.25 | -0.0897 ± 0.24 |
| UCCCAGCAAUAUUACGUAGA | -0.0439 ± 0.054 | 0.435 ± 0.073 |
| UUUAAGCAAUAUUACGUGGG | -2.92 ± 0.13 | -2.1 ± 0.17 |
| AGGUAGCAAUAUUACGAAAC | -3.37 ± 0.035 | -1.85 ± 0.042 |
| UACUAGCAAUAUUACGGGGG | -2.19 ± 0.12 | -1.31 ± 0.14 |
| CCAUAGCAAUAUUACGACCU | -2.92 ± 0.33 | -1.28 ± 0.41 |
